B1: SGN-B6A (h2A2 conjugated to the vedotin drug-linker) (antibody, V domains shown)
VH: QFQLVQSGAEVKKPGASVKVSCKASGYSFTDYNVNWVRQAPGQGLEWIGVINPKYGTTRYNQKFKGRATLTVDKSTSTAYMELSSLRSEDTAVYYCTRGLNAWDYWGQGTLVTVSS
VL: DIQMTQSPSSLSASVGDRVTITCGASENIYGALNWYQQKPGKAPKLLIYGATNLEDGVPSRFSGSGSGRDYTFTISSLQPEDIATYYCQNVLTTPYTFGQGTKLEIK
B2: h2A2 (humanized 2A2 anti-integrin beta-6 antibody) (antibody, V domains shown)
VH: B1 VH
VL: B1 VL

Tests used:
[1] = biological target: recombinant human integrin alpha-v/beta-1 (Homo sapiens, UniProt P06756;P05556); assay: ELISA
Sequence of recombinant human integrin alpha-v/beta-1 (P06756 31-1048, chain 1 of 2): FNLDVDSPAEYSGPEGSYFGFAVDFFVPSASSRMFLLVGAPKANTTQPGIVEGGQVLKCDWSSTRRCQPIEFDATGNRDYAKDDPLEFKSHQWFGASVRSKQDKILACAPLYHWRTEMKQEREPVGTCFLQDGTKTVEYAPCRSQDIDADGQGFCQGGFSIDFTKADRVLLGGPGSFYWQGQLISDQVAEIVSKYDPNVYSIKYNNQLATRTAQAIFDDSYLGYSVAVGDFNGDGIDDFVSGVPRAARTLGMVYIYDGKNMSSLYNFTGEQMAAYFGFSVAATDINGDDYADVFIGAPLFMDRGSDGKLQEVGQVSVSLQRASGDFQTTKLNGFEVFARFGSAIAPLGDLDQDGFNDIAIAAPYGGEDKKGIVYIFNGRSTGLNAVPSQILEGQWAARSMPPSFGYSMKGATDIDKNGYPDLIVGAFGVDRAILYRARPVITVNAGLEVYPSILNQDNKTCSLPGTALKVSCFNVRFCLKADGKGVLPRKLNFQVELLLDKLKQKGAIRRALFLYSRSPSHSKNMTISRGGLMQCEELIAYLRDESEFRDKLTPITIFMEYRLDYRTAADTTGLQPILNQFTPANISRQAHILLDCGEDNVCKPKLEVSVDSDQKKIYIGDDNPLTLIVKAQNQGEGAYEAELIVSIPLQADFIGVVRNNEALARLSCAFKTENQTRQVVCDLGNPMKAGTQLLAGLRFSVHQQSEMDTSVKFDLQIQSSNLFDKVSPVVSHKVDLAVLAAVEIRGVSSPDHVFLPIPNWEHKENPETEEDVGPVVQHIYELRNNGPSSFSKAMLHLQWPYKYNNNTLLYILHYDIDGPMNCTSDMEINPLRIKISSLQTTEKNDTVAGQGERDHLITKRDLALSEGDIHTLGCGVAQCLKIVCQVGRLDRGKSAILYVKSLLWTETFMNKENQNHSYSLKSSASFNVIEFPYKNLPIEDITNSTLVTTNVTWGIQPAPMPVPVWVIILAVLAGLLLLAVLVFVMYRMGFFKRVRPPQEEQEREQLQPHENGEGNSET
Sequence of recombinant human integrin alpha-v/beta-1 (P05556 21-728, chain 2 of 2): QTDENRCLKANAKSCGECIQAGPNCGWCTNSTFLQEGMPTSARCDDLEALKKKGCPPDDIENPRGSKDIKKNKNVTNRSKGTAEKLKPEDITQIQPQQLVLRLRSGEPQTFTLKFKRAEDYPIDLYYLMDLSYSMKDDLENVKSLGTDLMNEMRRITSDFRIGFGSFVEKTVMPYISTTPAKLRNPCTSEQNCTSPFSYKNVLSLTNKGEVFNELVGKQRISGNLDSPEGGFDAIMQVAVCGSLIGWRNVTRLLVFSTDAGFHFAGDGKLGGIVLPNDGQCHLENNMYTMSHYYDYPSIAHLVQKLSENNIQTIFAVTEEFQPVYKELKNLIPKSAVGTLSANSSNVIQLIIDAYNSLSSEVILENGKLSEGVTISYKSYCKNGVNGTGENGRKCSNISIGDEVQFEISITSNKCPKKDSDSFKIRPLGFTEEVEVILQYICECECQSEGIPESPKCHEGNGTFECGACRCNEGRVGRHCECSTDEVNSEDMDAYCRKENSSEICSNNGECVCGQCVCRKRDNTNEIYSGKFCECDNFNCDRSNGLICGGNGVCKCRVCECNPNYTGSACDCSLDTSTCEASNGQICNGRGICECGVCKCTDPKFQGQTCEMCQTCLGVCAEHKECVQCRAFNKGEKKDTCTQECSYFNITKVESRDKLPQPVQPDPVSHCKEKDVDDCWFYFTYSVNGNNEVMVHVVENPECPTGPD

[2] = biological target: recombinant human integrin alpha-v/beta-6 (Homo sapiens, UniProt P06756;P18564); assay: ELISA
Sequence of recombinant human integrin alpha-v/beta-6 (P06756 31-1048, chain 1 of 2): as the sequence (P06756 31-1048, chain 1 of 2) above
Sequence of recombinant human integrin alpha-v/beta-6 (P18564 22-709, chain 2 of 2): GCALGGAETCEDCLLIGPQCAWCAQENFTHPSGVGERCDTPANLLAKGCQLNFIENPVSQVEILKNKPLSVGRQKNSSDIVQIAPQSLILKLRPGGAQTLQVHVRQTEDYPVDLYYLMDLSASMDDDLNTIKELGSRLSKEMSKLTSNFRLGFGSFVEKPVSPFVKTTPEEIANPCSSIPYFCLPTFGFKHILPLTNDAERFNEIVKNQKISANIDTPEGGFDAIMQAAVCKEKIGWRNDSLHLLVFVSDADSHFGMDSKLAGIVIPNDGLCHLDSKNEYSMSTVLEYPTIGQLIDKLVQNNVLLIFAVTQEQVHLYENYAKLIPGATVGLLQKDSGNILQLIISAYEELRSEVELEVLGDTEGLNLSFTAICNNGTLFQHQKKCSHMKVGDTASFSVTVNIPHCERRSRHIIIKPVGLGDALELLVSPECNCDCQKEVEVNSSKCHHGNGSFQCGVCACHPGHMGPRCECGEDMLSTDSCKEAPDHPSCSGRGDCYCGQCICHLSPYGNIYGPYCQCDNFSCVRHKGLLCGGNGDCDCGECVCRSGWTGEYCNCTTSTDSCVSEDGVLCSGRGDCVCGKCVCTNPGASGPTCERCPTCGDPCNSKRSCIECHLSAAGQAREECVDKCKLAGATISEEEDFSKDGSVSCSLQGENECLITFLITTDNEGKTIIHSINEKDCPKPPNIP

[3] = biological target: recombinant human integrin alpha-v/beta-3 (Homo sapiens, UniProt P06756;P05106); assay: ELISA
Sequence of recombinant human integrin alpha-v/beta-3 (P06756 31-1048, chain 1 of 2): as the sequence (P06756 31-1048, chain 1 of 2) above
Sequence of recombinant human integrin alpha-v/beta-3 (P05106 27-718, chain 2 of 2): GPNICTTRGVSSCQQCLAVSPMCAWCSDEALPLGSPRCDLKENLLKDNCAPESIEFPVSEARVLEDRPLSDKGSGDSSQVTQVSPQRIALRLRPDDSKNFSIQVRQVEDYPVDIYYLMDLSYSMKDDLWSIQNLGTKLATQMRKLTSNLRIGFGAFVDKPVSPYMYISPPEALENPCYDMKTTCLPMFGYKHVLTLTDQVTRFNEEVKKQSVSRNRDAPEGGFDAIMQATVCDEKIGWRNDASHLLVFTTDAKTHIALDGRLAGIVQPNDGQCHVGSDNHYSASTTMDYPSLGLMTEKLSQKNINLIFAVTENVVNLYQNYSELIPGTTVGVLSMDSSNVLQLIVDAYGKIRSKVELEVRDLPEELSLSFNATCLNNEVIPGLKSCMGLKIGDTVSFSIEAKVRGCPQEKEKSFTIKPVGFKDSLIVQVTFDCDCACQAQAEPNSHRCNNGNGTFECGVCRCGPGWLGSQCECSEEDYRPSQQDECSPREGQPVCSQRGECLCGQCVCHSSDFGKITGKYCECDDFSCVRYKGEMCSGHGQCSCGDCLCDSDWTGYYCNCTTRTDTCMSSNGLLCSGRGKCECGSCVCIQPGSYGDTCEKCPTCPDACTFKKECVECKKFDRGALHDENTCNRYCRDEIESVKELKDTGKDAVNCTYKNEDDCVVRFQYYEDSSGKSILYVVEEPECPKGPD

[4] = biological target: recombinant human integrin alpha-v/beta-5 (Homo sapiens, UniProt P06756;P18084); assay: ELISA
Sequence of recombinant human integrin alpha-v/beta-5 (P06756 31-1048, chain 1 of 2): as the sequence (P06756 31-1048, chain 1 of 2) above
Sequence of recombinant human integrin alpha-v/beta-5 (P18084 24-719, chain 2 of 2): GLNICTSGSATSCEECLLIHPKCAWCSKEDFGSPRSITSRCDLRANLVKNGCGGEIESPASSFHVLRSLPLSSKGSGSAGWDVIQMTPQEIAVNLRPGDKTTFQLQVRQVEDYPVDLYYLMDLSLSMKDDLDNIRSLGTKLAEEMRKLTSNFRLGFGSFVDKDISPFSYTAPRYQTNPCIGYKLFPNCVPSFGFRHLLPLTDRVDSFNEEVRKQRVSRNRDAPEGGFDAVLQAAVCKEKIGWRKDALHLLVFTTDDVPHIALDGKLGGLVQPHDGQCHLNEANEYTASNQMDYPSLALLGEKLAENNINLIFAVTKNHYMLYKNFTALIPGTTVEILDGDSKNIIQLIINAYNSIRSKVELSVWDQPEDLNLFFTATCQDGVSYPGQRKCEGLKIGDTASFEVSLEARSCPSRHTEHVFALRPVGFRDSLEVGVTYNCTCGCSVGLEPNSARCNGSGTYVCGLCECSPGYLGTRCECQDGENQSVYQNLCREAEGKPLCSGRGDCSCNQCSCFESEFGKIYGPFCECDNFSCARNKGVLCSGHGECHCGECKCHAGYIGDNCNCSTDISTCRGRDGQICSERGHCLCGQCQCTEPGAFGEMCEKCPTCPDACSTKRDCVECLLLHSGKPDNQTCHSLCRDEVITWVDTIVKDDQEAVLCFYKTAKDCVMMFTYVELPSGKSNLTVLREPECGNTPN

[5] = biological target: recombinant human integrin alpha-v/beta-8 (Homo sapiens, UniProt P06756;P26012); assay: ELISA
Sequence of recombinant human integrin alpha-v/beta-8 (P06756 31-1048, chain 1 of 2): as the sequence (P06756 31-1048, chain 1 of 2) above
Sequence of recombinant human integrin alpha-v/beta-8 (P26012 43-684, chain 2 of 2): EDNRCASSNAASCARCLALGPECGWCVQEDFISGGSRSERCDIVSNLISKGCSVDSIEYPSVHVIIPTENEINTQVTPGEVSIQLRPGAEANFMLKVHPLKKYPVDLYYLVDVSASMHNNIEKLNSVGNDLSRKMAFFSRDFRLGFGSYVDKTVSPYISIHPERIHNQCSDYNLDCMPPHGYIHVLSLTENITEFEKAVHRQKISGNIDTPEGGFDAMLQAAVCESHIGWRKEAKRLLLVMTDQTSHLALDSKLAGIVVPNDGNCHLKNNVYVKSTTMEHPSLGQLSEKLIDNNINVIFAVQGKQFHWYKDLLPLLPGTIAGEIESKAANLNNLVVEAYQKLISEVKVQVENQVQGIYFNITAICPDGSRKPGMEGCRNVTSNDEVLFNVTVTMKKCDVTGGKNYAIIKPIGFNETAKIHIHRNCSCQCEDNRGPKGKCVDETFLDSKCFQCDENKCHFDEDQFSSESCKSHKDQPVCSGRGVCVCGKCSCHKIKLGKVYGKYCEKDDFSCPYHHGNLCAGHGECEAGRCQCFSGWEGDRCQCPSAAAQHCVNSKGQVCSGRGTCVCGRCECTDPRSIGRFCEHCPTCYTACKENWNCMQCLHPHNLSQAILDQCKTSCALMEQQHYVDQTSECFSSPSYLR

[6] = biological target: human integrin beta-6 on 293F:hu beta-6 transfected cells (Homo sapiens, UniProt P06756;P18564); assay: flow cytometry on cells

Binder | binding result [1] | EC50 [2] | binding result [3] | binding result [4] | binding result [5] | EC50 [6]
B1 | no binding | 0.9 nM | no binding | no binding | no binding | 
B2 | no binding | 0.7 nM | no binding | no binding | no binding | 0.3 nM
